This is an account of results in PMC3749868, “Proteolytic processing of QSOX1A ensures efficient secretion of a potent disulfide catalyst” (Biochemical Journal, 2013).

Series [1] concerns the target QSOX1B–V5 (quiescin sulfhydryl oxidase 1, splice variant B, V5-tagged) (human) (UniProt O00391). As to the kind of experiment: SEC; protein secreted for 3 h into serum-free medium, concentrated and buffer-exchanged (gel-filtration buffer with 0.03% Triton X-100 by the legend, 0.02% DDM by the methods), S200 PC3.2/30 column; fractions analysed by Western blot. A general note: In gel filtration, larger molecules generally elute earlier.

Series [2] deals with cleaved QSOX1A (soluble product of the proteolytic processing of QSOX1A–V5, without the TM domain and the V5 tag) (human). The series is described as above.
Series [3] shares this target. The series is described as follows: SEC; cell lysate (2% DDM) of the QSOX1A–V5 cell line, Sephadex 200 PC3.2/30 column, 50 mM Tris/HCl pH 7.5, 150 mM NaCl, 1 mM EDTA, 0.02% DDM; fractions analysed by Western blot (anti-V5, anti-QSOX1A).
Series [4] deals with the molecule itself. As to the kind of experiment: cross-linking; thiol-specific cross-linker BMH, 0.1 mM, added to intact cells in KHM buffer, 30 min on ice, stopped with 20 mM DTT; lysates analysed by Western blot or by immunoisolation (anti-V5–agarose, then anti-QSOX1A) of radiolabelled proteins; MS of the cross-linked product (results not shown).

What is called stoichiometry N is a count of units in the complex or per binding partner. “QSOX1B–V5 (quiescin sulfhydryl oxidase 1, splice variant B, V5-tagged) (from UniProt O00391-2 30-604) (enzyme)”: the stoichiometry N in series [1] was determined as 2.
As to “cleaved QSOX1A (soluble product of the proteolytic processing of QSOX1A–V5, without the TM domain and the V5 tag) (domain or fragment)”, the stoichiometry N in series [2] and in series [3] was 2 in each case.

B1: QSOX1A–V5 (quiescin sulfhydryl oxidase 1, splice variant A, V5-tagged, uncleaved) (enzyme, human, UniProt O00391 30-747, looked up)
chain: APRSALYSPSDPLTLLQADTVRGAVLGSRSAWAVEFFASWCGHCIAFAPTWKALAEDVKAWRPALYLAALDCAEETNSAVCRDFNIPGFPTVRFFKAFTKNGSGAVFPVAGADVQTLRERLIDALESHHDTWPPACPPLEPAKLEEIDGFFARNNEEYLALIFEKGGSYLGREVALDLSQHKGVAVRRVLNTEANVVRKFGVTDFPSCYLLFRNGSVSRVPVLMESRSFYTAYLQRLSGLTREAAQTTVAPTTANKIAPTVWKLADRSKIYMADLESALHYILRIEVGRFPVLEGQRLVALKKFVAVLAKYFPGRPLVQNFLHSVNEWLKRQKRNKIPYSFFKTALDDRKEGAVLAKKVNWIGCQGSEPHFRGFPCSLWVLFHFLTVQAARQNVDHSQEAAKAKEVLPAIRGYVHYFFGCRDCASHFEQMAAASMHRVGSPNAAVLWLWSSHNRVNARLAGAPSEDPQFPKVQWPPRELCSACHNERLDVPVWDVEATLNFLKAHFSPSNIILDFPAAGSAARRDVQNVAAAPELAMGALELESRNSTLDPGKPEMMKSPTNTTPHVPAEGPEASRPPKLHPGLRAAPGQEPPEHMAELQRNEQEQPLGQWHLSKRDTGAALLAESRAEKNRLWGPLEVRRVGRSSKQLVDIPEGQLEARAGRGRGQWLQVLGGGFSYLDISLCVGLYSLSFMGLLAMYTYFQAKIRALKGHAGHPAA
notes: human QSOX1A, the long splice variant of QSOX1 with 143 additional C-terminal amino acids including the single-pass TM domain; uncleaved (full-length) form; Membrane-integrated, V5 on the cytosolic side; also called V5-tagged QSOX1A; uncleaved QSOX1A–V5; source: HT1080, stably overexpressing (cross-linking in cells, SEC of lysate); HT1080, transiently co-transfected, in lysate (co-assembly); not …
Regarding B1, the “stoichiometry N” value in series [4] turned out to be 2.
